# Results from paper PMC11461925 (2024).
# B1: LY-CoV555 Fab (Fab, V domains shown)
# VH: QVQLVQSGAEVKKPGSSVKVSCKASGGTFSNYAISWVRQAPGQGLEWMGRIIPILGIANYAQKFQGRVTITADKSTSTAYMELSSLRSEDTAVYYCARGYYEARHYYYYYAMDVWGQGTAVTVSS
# VL: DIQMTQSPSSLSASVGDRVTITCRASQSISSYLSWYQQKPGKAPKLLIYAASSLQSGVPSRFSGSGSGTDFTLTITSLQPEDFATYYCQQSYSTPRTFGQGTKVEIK
# Molecular target: Wu-1-RBD-I53-50A (SARS-CoV-2, UniProt P0DTC2 328-531)
# Assay: BLI
binder,measurement,value
B1,Kd,0.0269 µM
